T1: monkey GFRα3 expressed with a C-terminal myc-myc-hexahistidine tag (monkey (Mf), UniProt O60609 32-374 (human entry), limits assumed)
T1 construct: also called MfGFRα3-mmh; MfGFRα3-mmH
T1 chain: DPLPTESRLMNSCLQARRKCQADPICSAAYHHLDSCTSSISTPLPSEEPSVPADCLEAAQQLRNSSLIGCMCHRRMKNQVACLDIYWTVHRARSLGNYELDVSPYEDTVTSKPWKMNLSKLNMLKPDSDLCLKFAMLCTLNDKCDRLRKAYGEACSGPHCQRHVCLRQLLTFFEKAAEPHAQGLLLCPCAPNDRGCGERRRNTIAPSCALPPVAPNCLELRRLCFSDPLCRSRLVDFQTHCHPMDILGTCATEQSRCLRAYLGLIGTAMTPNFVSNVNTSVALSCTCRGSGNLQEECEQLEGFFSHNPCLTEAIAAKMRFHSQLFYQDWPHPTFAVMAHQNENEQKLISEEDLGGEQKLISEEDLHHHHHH

T2: human GFRα3 expressed with a C-terminal mFc tag (human)
T2 construct: also called hGFRα3-mFc
T2 chain: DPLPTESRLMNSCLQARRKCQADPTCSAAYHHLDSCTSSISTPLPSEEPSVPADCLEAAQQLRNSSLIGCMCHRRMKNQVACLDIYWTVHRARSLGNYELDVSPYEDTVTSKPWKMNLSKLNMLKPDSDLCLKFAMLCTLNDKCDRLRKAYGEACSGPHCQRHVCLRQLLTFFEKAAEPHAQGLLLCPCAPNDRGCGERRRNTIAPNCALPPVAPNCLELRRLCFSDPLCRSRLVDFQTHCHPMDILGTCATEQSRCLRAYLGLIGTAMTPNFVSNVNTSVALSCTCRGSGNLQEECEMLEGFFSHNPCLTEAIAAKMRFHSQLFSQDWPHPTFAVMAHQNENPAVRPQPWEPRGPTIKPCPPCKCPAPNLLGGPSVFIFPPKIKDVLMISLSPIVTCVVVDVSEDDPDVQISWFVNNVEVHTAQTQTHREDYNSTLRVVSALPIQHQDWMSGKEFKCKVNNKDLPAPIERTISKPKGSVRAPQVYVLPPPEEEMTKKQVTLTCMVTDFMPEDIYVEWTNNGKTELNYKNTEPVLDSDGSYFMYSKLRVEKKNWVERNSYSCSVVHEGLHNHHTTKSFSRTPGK


Legend:
[1] = target: T1, monkey GFRα3 expressed with a …; assay: SPR, Ab captured, 25C
Outline: (§1)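 Capture: anti-mIgG or anti-hIgG on CM5. Analyte: mmh antigen 200–7.4 nM, hFc antigen 100–3.7 nM, 3-fold series. Assoc ≤4 min, dissoc ≤20 min. 1:1 fit; KD = kd/kₐ, t½ = ln2/(60*kd).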

[2] = target: T2, human GFRα3 expressed with a C-terminal …; assay: SPR, Ab captured, 25C
Outline: as §1

[3] = target: T3, human GFRα3 expressed with a C-terminal myc-myc-hexahistidine tag (human, UniProt O60609 32-374, biotinylated (sites not given) in ELISA format 2 and in the Octet cross-competition; not in SPR); assay: SPR, Ab captured, 25C
T3 construct: also called hGFRα3-mmh; hGFRα3-mmH
Outline: as §1

[4] = target: T3, human GFRα3 expressed with a C-terminal …; assay: Octet cross-competition; biotin-hGFRα3-mmH pre-saturated with first antibody H4H2236N3
Procedure: A cross-competition assay was conducted to assess the ability of select antibodies to compete with one another for binding to human GFRα3 using an Octet RED384 biosensor (Fortebio Inc.). The entire experiment was performed at 25° C. with the flow rate of 1000 rpm in Octet HBST buffer (0.01 M HEPES pH7.4, 0.15M NaCl, 3 mM EDTA, 0.05% v/v Surfactant P20, 0.1 mg/mL BSA). To assess whether 2 antibodies were able to compete with one another for binding to their respective epitopes on biotinylated recombinant human GFRα3 expressed with a C-terminal myc-myc-hexahistidine tag (biotin-hGFRα3-mmH; SEQ ID:370), around ˜1.2 nm of biotin-hGFRα3-mmH was first captured onto streptavidin-coated Octet sensor tips (Fortebio Inc, #18-5019) by submerging the tips for 1 minute into a 10 μg/mL solution of biotin-hGFRα3-mmH. The antigen coated sensor tips were then placed into wells containing 25 μg/mL solution of a first anti-GFRα3 monoclonal antibody for 4 minutes to saturate the biotin-hGFRα3-mmH surface. The sensor tips were then subsequently dipped into wells containing 25 μ/mL solution of a second anti-GFRα3 monoclonal antibody. The sensor tips were washed in Octet HBST buffer in between every step of the experiment. The real-time binding response was monitored during the course of the experiment and the binding response at the end of every step was recorded as shown in FIG. 9. The response of mAb-2 binding to biotin-hGFRα3-mmH pre-complexed with the first antibody was compared and competitive/non-competitive behavior of different anti-GFRα3 monoclonal antibodies was determined.

T3 sequence (O60609 other isoform, or with tags, fused parts or gaps limits assumed): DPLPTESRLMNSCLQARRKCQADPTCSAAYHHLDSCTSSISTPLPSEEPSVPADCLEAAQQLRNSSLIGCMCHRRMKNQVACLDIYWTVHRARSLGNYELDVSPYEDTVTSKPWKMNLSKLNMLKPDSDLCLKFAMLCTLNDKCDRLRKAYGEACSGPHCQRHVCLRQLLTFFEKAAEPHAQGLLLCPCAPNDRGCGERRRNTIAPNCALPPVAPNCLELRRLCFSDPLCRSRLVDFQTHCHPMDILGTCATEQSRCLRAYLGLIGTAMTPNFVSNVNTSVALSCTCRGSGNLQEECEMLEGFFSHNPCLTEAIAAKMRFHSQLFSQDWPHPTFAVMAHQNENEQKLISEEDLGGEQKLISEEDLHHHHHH

Kd [1] [nM] | koff [1] [s⁻¹] | kon [1] [M⁻¹ s⁻¹] | t1/2 [1] [h] | Kd [2] [nM] | koff [2] [s⁻¹] | kon [2] [M⁻¹ s⁻¹] | t1/2 [2] [h] | Kd [3] [nM] | koff [3] [s⁻¹] | kon [3] [M⁻¹ s⁻¹] | t1/2 [3] [h] | binding response of second antibody (nm) [4] [nm] | Binder
≤ 0.0029 | ≤ 1e-06 | 345000 | 192 | ≤ 0.000467 | ≤ 1e-06 | 2.14e+06 | 192 | 0.082 | 5.81e-05 | 709000 | 3.32 | 1.91 | H4H2352S (antibody, human IgG4, V domains shown, human IgG4 Fc (H4H); also called H4H2352S-1) VH: EVQLVQSGAEVKKPGASVKVSCKASGYTFTNYGITWVRQAPGQGLEWMGWISAYNGNTGYAQKFQGRVTMTTDTSTSTAYMELRSLRSDDTAVYYCAREDYDFWRAFDIWGQGTMVTVSS VL: EIVLTQSPGTLSLSPGERATLSCRASQSVSSTYLAWLQQKPGQAPRLLIYGASSRATGIPDRFSGSGSGTDFTLTINRLEPEDFAVYYCQQYAYSPYTFGQGTKLEIK
1.57 | 0.000122 | 77600 | 1.58 | ≤ 0.00187 | – | 534000 | 192 | 0.483 | 5.19e-05 | 108000 | 3.72 | 1.81 | H4H2292S (antibody, human IgG4, V domains shown, human IgG4 Fc (H4H)) VH: EVQLVESGGGVVQPGRSLRLSCAASGFTFSSYGMHWVRQAPGKGLEWVSFIWYDGSNKYYADSVKGRFTISRDNSKNTLYLQMNSLTAEDTAVYYCARRGILTGTTAFDIWGQGTMVTVSS VL: DIQMTQSPSSLSASVGDRVTITCRASQSISSYLNWYQQKPGKAPKLLIYAASSLQSGVPSRFSGSGSGTDFTLTIRSLIPEDFATYYCQQTYNTPFTFGPGTKVEIK
1.71 | 0.000111 | 64700 | 1.73 | 0.0416 | 2.12e-05 | 509000 | 9.08 | 2.01 | 0.000207 | 103000 | 0.933 | 1.35 | H4H2350P (antibody, human IgG4, V domains shown, human IgG4 Fc (H4H)) VH: QVQLQESGPGLVKPSETLSLTCTVSGGSISTYYWSWFRQPPGKGLEWIGYIYYSGSTNHNPSLKSRVTISVDTSKNQFSLKLRSVTAADTAVYYCARVGPVGWGSWGNFDYWGQGTLVTVSS VL: DIQLTQSPSFLSASVGDRVTITCWASQGISSYLAWSQQKPGKAPKLLIYAASTLQSGVPSRFSGSGSGTEFTLTISSLQPEDFATYYCQQLNSYPWTFGQGTKVEIK

Source: patent publication US20140056903A1 (Regeneron, published 2014)
